Test results as given in paper PMC10914751.

Molecular target: Plk4 CPB (in vitro binding, Supplementary Fig. 3i)
Sequence (O00444 whole entry): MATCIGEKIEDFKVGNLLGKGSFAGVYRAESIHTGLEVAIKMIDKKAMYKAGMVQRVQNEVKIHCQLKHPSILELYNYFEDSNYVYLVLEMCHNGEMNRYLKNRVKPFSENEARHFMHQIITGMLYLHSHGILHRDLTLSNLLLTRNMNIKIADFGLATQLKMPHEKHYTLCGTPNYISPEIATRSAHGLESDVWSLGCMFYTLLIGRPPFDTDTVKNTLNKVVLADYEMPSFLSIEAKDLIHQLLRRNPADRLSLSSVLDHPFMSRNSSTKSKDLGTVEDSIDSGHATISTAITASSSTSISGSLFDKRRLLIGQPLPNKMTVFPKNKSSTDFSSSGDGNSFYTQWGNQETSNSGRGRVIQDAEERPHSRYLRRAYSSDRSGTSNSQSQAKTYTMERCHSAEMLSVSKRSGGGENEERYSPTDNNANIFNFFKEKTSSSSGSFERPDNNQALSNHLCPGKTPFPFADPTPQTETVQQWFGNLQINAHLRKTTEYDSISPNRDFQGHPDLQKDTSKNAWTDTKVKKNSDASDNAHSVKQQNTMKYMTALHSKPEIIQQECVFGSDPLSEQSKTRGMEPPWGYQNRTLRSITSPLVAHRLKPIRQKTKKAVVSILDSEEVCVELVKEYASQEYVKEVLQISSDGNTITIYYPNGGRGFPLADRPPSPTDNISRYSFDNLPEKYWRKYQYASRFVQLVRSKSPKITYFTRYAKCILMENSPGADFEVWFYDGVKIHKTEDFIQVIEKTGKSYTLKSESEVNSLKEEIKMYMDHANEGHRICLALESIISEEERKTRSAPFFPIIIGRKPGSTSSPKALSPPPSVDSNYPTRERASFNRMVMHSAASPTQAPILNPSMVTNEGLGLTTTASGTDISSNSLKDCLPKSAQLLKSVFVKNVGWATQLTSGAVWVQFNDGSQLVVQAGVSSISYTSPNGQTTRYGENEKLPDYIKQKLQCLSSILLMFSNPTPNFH

recombinant Vpr (from UniProt P12520 1-96) (natural protein)
in vitro kinase assay: trans-autophosphorylation of the SSTT motif (S698, S700, T704, T707) of GST-Plk4(1–836; ∆PB3) in the presence of Vpr•VprBP, but not Vpr(1–79)•VprBP; anti-p-SSTT immunoblot: 1.8 fold
